# Test results as given in patent US20230173091A1 (published 2023).
# T1: CD20 (Acro Biosystems) (UniProt P11836 1-297)
# T1 sequence (looked up): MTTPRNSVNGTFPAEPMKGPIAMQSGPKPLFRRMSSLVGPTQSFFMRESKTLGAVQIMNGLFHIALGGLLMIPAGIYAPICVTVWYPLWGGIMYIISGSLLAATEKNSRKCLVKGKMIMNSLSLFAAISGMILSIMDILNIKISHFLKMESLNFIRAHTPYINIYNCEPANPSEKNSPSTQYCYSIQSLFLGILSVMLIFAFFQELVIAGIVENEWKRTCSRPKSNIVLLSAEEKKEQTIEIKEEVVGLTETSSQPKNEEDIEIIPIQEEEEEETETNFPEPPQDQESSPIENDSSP
# Molecular target: T1, CD20 (Acro Biosystems)
binder,measurement,value
"rituximab (antibody, human IgG1, kappa, V domains shown) VH: QVQLQQPGAELVKPGASVKMSCKASGYTFTSYNMHWVKQTPGRGLEWIGAIYPGNGDTSYNQKFKGKATLTADKSSSTAYMQLSSLTSEDSAVYYCARSTYYGGDWYFNVWGAGTTVTVSA VL: QIVLSQSPAILSASPGEKVTMTCRASSSVSYIHWFQQKPGSSPKPWIYATSNLASGVPVRFSGSGSGTSYSLTISRVEAEDAATYYCQQWTSNPPTFGGGTKLEIKR",Kd,< 1 pM
same,koff,< 1e-07 s⁻¹
same,kon,140000 M⁻¹ s⁻¹
